Experimental data as given in publication PMC8688422.

Columns and labels:
galectin-1 C3S = galectin-1 C3S (UniProt P09382)
galectin-1 = galectin-1 (UniProt P09382); test: SPR; BIAcore 1000, galectin-1 amine-coupled to CM5 chip, analyte injected at different concentrations, 25 °C, HBS-EP (10 mM HEPES, 150 mM NaCl, 3 mM EDTA, 0.005% P20) pH 7.4; single association, biphasic dissociation

fluorescence anisotropy: binding affinity of galectin-1 C3S for the fluorescein-tagged tdga-probe with 8 µM CXCL4 against galectin-1 alone (galectin-1 C3S): 10 fold
fluorescence anisotropy: inhibitory potency of asialofetuin (ASF) on the galectin-1 C3S/tdga-probe interaction with 8 µM CXCL4 against without (galectin-1 C3S): > 600 fold
K1 (kd1/ka) (galectin-1): 9 µM
K2 (kd2/ka) (galectin-1): 483 nM
kd1 (first phase of the biphasic dissociation) (galectin-1): 0.092 s⁻¹
kd2 (second phase of the biphasic dissociation) (galectin-1): 0.005 s⁻¹
kon (galectin-1): 10200 M⁻¹ s⁻¹
stoichiometry N (CXCL4 per galectin-1) (galectin-1): 2
Substance: platelet factor 4 (PF4/CXCL4) (ligand)
